# Source: US12383631 (BRIGHT PEAK THERAPEUTICS, dated 2025)
# Values joined by “and” are separate entries in the source; they are usually repeats but may differ in a detail not shown here. Equal entries are not always repeated.
# T1: IL-18 receptor (IL-18Rα/IL-18Rβ) on cells (HEK-Blue IL18R reporter cells, NK-92, KG-1) (human, UniProt Q13478 19-541; O95256 20-599)
# T1 sequence (looked up) 1: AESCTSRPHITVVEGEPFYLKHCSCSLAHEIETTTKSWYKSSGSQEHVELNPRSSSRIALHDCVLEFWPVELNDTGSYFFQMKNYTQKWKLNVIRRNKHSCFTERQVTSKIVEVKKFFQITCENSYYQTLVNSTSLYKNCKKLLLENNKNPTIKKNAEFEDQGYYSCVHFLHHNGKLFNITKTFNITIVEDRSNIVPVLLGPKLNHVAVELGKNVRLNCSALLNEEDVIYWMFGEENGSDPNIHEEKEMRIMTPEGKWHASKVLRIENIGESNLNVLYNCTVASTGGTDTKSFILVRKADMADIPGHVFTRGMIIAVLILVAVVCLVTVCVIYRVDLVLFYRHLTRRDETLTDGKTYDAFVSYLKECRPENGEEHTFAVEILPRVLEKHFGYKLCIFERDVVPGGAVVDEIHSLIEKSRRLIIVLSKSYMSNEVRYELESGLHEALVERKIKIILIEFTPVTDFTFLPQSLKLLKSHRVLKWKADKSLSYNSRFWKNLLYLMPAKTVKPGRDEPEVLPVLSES
# T1 sequence (looked up) 2: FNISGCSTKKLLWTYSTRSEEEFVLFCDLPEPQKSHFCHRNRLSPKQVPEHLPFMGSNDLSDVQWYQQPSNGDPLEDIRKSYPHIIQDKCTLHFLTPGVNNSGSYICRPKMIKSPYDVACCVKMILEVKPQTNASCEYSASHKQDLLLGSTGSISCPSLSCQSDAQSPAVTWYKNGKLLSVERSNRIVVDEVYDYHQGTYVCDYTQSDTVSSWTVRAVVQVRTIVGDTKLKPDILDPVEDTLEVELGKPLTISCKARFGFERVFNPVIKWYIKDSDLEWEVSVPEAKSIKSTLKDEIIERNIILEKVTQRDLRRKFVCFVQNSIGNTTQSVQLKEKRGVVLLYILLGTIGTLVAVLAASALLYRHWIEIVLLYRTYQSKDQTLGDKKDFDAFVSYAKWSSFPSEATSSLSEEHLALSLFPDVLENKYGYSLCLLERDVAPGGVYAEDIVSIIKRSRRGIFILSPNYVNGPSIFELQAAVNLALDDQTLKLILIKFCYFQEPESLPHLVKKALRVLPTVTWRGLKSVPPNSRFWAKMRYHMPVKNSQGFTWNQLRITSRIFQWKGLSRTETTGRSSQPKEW
# T2: human IL-18BP-His (human, UniProt O95998 31-194, limits assumed)
# T2 construct: also called His-tagged human IL-18BP; not shown: His tag
# T2 sequence (looked up): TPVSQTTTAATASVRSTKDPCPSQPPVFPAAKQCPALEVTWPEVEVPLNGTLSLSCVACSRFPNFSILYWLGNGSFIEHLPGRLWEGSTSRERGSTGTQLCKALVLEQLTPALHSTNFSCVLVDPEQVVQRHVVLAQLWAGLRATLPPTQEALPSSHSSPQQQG
# What was measured:
# [1] = molecular target: T1, IL-18 receptor (IL-18Rα/IL-18Rβ) on …; assay: cell-based or functional assay
# [2] = molecular target: T1, IL-18 receptor (IL-18Rα/IL-18Rβ) on …; assay: cell-based or functional assay; remark: listed apart in the source
# human IL-18BP-His = molecular target: T2, human IL-18BP-His; assay: AlphaLISA of free IL-18BP
# Procedure: The plate is incubated further for 1 hr at room temperature. Under subdued light, 12.5 µL of 2× streptavidin (SA) donor beads are pipetted into each well, and the wells are incubated with shaking for an additional 30 min at room temperature. The AlphaLisa signal is then measured on an Enspire plate reader with 680 and 615 nm as excitation and emission wavelengths, respectively. The dissociation constant (K_D) is calculated based on a variable slope, four parameter analysis using GraphPad PRISM software.
# [3] = molecular target: T1, IL-18 receptor (IL-18Rα/IL-18Rβ) on …; assay: cell-based or functional assay; remark: listed apart in the source
"EC50, HEK-Blue IL18R reporter cells [1]","EC50, IFNγ stimulation, NK92 cells [2]",Kd (human IL-18BP-His),"EC50, IFNγ secretion, NK92 cells [3]",Binder
0.00086 nM and 0.00053 nM,0.045 nM,50.2 nM,–,"IL-18 polypeptide of SEQ ID NO: 57 (E6K, C38S, K53A) (ligand) YFGKLKSKLSVIRNLNDQVLFIDQGNRPLFEDMTDSDSRDNAPRTIFIISMYADSQPRGMAVTISVKCEKISTLSCENKIISFKEMNPPDNIKDTKSDIIFFQRSVPGHDNKMQFESSSYEGYFLACEKERDLFKLILKKEDELGDRSIMFTVQNED"
0.00912 nM,0.962 nM,446 nM,–,"IL-18 polypeptide of SEQ ID NO: 54 (E06K, K53A, C38S, C68S, C76S, C127S, K70C) (ligand) YFGKLKSKLSVIRNLNDQVLFIDQGNRPLFEDMTDSDSRDNAPRTIFIISMYADSQPRGMAVTISVKSECISTLSSENKIISFKEMNPPDNIKDTKSDIIFFQRSVPGHDNKMQFESSSYEGYFLASEKERDLFKLILKKEDELGDRSIMFTVQNED"
0.000268 nM,0.015 nM,36 nM,–,"IL-18 polypeptide of SEQ ID NO: 59 (E6K, C38A, K53A) (ligand) YFGKLKSKLSVIRNLNDQVLFIDQGNRPLFEDMTDSDARDNAPRTIFIISMYADSQPRGMAVTISVKCEKISTLSCENKIISFKEMNPPDNIKDTKSDIIFFQRSVPGHDNKMQFESSSYEGYFLACEKERDLFKLILKKEDELGDRSIMFTVQNED"
0.00177 nM,0.0268 nM,340 nM,–,"IL-18 polypeptide of SEQ ID NO: 50 (E06K, K53A, T63A) (ligand) YFGKLKSKLSVIRNLNDQVLFIDQGNRPLFEDMTDSDCRDNAPRTIFIISMYADSQPRGMAVAISVKCEKISTLSCENKIISFKEMNPPDNIKDTKSDIIFFQRSVPGHDNKMQFESSSYEGYFLACEKERDLFKLILKKEDELGDRSIMFTVQNED"
0.00017 nM,0.026 nM,69.6 nM,–,"IL-18 polypeptide of SEQ ID NO: 62 (E6K, C38A, K53A, C127A) (ligand) YFGKLKSKLSVIRNLNDQVLFIDQGNRPLFEDMTDSDARDNAPRTIFIISMYADSQPRGMAVTISVKCEKISTLSCENKIISFKEMNPPDNIKDTKSDIIFFQRSVPGHDNKMQFESSSYEGYFLAAEKERDLFKLILKKEDELGDRSIMFTVQNED"

# Second part, the binder before the results:
Binder,"EC50, HEK-Blue IL18R reporter cells [1]","EC50, IFNγ stimulation, NK92 cells [2]",Kd (human IL-18BP-His),"EC50, IFNγ secretion, NK92 cells [3]"
"IL-18 polypeptide C168 (ligand, also called V11I, C38A, C76A, S105K, C127A) YFGKLESKLSIIRNLNDQVLFIDQGNRPLFEDMTDSDARDNAPRTIFIISMYKDSQPRGMAVTISVKCEKISTLSAENKIISFKEMNPPDNIKDTKSDIIFFQRKVPGHDNKMQFESSSYEGYFLAAEKERDLFKLILKKEDELGDRSIMFTVQNED",0.00773 nM,0.098 nM,0.05 nM,–
"Composition E (LZM-009 conjugated to IL-18 polypeptide of SEQ ID NO: 60) (other, chemical linker to the antibody; chemical linker to IL-18) VH: QVQLVQSGAEVKKPGASVKVSCKASGYTFTSYYMYWVRQAPGQGLEWMGGVNPSNGGTNFNEKFKSRVTITADKSTSTAYMELSSLRSEDTAVYYCARRDYRYDMGFDYWGQGTTVTVSS VL: EIVLTQSPATLSLSPGERATISCRASKGVSTSGYSYLHWYQQKPGQAPRLLIYLASYLESGVPARFSGSGSGTDFTLTISSLEPEDFATYYCQHSRELPLTFGTGTKVEIK YFGKLKSKLSVIRNLNDQVLFIDQGNRPLFEDMTDSDQRDNAPRTIFIISMYADSQPRGMAVTISVKCEKISTLSCENKIISFKEMNPPDNIKDTKSDIIFFQRSVPGHDNKMQFESSSYEGYFLACEKERDLFKLILKKEDELGDRSIMFTVQNED",–,–,–,0.056 nM
"IL-18 polypeptide of SEQ ID NO: 42 (E06K, K53A, S55A, T63A) (ligand) YFGKLKSKLSVIRNLNDQVLFIDQGNRPLFEDMTDSDCRDNAPRTIFIISMYADAQPRGMAVAISVKCEKISTLSCENKIISFKEMNPPDNIKDTKSDIIFFQRSVPGHDNKMQFESSSYEGYFLACEKERDLFKLILKKEDELGDRSIMFTVQNED",0.00079 nM,0.144 nM,822 nM,–
